Results as given in the Human Domainome abundance scans (Beltran et al. 2025).
± gives the uncertainty stated by the source.

B1: Cullin-9, residues 2234 to 2275; numbered along this chain, Q8IWT3 (parent)
chain: KRCPSCQAPIEKNEGCLHMTCAKCNHGFCWRCLKSWKPNHKD

Variants of: B1
Assay: abundance fitness (aPCA) (normalised: wild type 0, dead -1); higher = more abundant; growth selection in yeast, the domain comes from the species named
Conditions: Homo sapiens

| Variant | abundance fitness |
| --- | --- |
| KRCPSCQAPIYKNEGCLHMTCAKCNHGFCWRCLKSWKPNHKD [E11Y] | 0.319 ± 0.45 |
| KRCPSCQAPIAKNEGCLHMTCAKCNHGFCWRCLKSWKPNHKD [E11A] | -0.185 ± 0.14 |
| KRCPSCQAPIEKNQGCLHMTCAKCNHGFCWRCLKSWKPNHKD [E14Q] | -0.132 ± 0.13 |
| KRCPSCQAPIEKNPGCLHMTCAKCNHGFCWRCLKSWKPNHKD [E14P] | -0.011 ± 0.16 |
| KRCPSCQAPIEKNCGCLHMTCAKCNHGFCWRCLKSWKPNHKD [E14C] | -0.001 ± 0.13 |
| KRCPSCQAPIEKNKGCLHMTCAKCNHGFCWRCLKSWKPNHKD [E14K] | -0.473 ± 0.17 |
| KRCPSCQAPIEKNWGCLHMTCAKCNHGFCWRCLKSWKPNHKD [E14W] | -0.362 ± 0.14 |
| KRCPSCQAPIEKNTGCLHMTCAKCNHGFCWRCLKSWKPNHKD [E14T] | -0.12 ± 0.15 |
| KRCPSCQAPIEKNGGCLHMTCAKCNHGFCWRCLKSWKPNHKD [E14G] | -0.071 ± 0.087 |
| KRCPSCQAPIEKNNGCLHMTCAKCNHGFCWRCLKSWKPNHKD [E14N] | -0.219 ± 0.24 |
| KRCPSCQAPIEKNRGCLHMTCAKCNHGFCWRCLKSWKPNHKD [E14R] | -0.369 ± 0.091 |
| KRCPSCQAPIEKNFGCLHMTCAKCNHGFCWRCLKSWKPNHKD [E14F] | -0.492 ± 0.2 |
| KRCPSCQAPIEKNMGCLHMTCAKCNHGFCWRCLKSWKPNHKD [E14M] | 0.121 ± 0.23 |
| KRCPSCQAPIEKNAGCLHMTCAKCNHGFCWRCLKSWKPNHKD [E14A] | -0.001 ± 0.087 |
| KRCPSCQAPIEKNVGCLHMTCAKCNHGFCWRCLKSWKPNHKD [E14V] | -0.397 ± 0.092 |
| KRCPSCQAPIEKNSGCLHMTCAKCNHGFCWRCLKSWKPNHKD [E14S] | -0.047 ± 0.1 |
| KRCPSCQAPIEKNLGCLHMTCAKCNHGFCWRCLKSWKPNHKD [E14L] | -0.411 ± 0.12 |
| KRCPSCQAPIEKNDGCLHMTCAKCNHGFCWRCLKSWKPNHKD [E14D] | -0.084 ± 0.16 |
| KRCPSCQAPIEKPEGCLHMTCAKCNHGFCWRCLKSWKPNHKD [N13P] | 0.183 ± 0.12 |
| KRCPSCQAPIEKQEGCLHMTCAKCNHGFCWRCLKSWKPNHKD [N13Q] | -0.044 ± 0.097 |

| Variant | abundance fitness |
| --- | --- |
| KRCPSCQAPIEKIEGCLHMTCAKCNHGFCWRCLKSWKPNHKD [N13I] | 0.493 ± 0.18 |
| KRCPSCQAPIEKREGCLHMTCAKCNHGFCWRCLKSWKPNHKD [N13R] | -0.034 ± 0.075 |
| KRCPSCQAPIEKYEGCLHMTCAKCNHGFCWRCLKSWKPNHKD [N13Y] | -0.244 ± 0.16 |
| KRCPSCQAPIEKSEGCLHMTCAKCNHGFCWRCLKSWKPNHKD [N13S] | -0.096 ± 0.1 |
| KRCPSCQAPIEKLEGCLHMTCAKCNHGFCWRCLKSWKPNHKD [N13L] | 0.229 ± 0.092 |
| KRCPSCQAPIEKFEGCLHMTCAKCNHGFCWRCLKSWKPNHKD [N13F] | -0.36 ± 0.17 |
| KRCPSCQAPIEKKEGCLHMTCAKCNHGFCWRCLKSWKPNHKD [N13K] | 0.117 ± 0.11 |
| KRCPSCQAPIEKEEGCLHMTCAKCNHGFCWRCLKSWKPNHKD [N13E] | -0.002 ± 0.1 |
| KRCPSCQAPIEKWEGCLHMTCAKCNHGFCWRCLKSWKPNHKD [N13W] | 0 ± 0.1 |
| KRCPSCQAPIEKCEGCLHMTCAKCNHGFCWRCLKSWKPNHKD [N13C] | -0.101 ± 0.15 |
| KRCPSCQAPIEKVEGCLHMTCAKCNHGFCWRCLKSWKPNHKD [N13V] | 0.051 ± 0.085 |
| KRCPSCQAPIEKMEGCLHMTCAKCNHGFCWRCLKSWKPNHKD [N13M] | -0.023 ± 0.097 |
| KRCPSCQAPIEKAEGCLHMTCAKCNHGFCWRCLKSWKPNHKD [N13A] | -0.071 ± 0.074 |
| KRCPSCQAPIEKHEGCLHMTCAKCNHGFCWRCLKSWKPNHKD [N13H] | -0.165 ± 0.14 |
| KRCPSCQAPIEKGEGCLHMTCAKCNHGFCWRCLKSWKPNHKD [N13G] | -0.059 ± 0.07 |
| KRCPSCQAPIEKTEGCLHMTCAKCNHGFCWRCLKSWKPNHKD [N13T] | 0.185 ± 0.1 |
| KRCPSCQAPIEKDEGCLHMTCAKCNHGFCWRCLKSWKPNHKD [N13D] | -0.209 ± 0.13 |
| KRCPSCQAPSEKNEGCLHMTCAKCNHGFCWRCLKSWKPNHKD [I10S] | -0.233 ± 0.095 |
| KRCPSCQAPTEKNEGCLHMTCAKCNHGFCWRCLKSWKPNHKD [I10T] | -0.083 ± 0.1 |
| KRCPSCQAPQEKNEGCLHMTCAKCNHGFCWRCLKSWKPNHKD [I10Q] | -0.231 ± 0.12 |

| Variant | abundance fitness |
| --- | --- |
| KRCPSCQAPVEKNEGCLHMTCAKCNHGFCWRCLKSWKPNHKD [I10V] | -0.138 ± 0.085 |
| KRCPSCQAPREKNEGCLHMTCAKCNHGFCWRCLKSWKPNHKD [I10R] | -0.534 ± 0.089 |
| KRCPSCQAPKEKNEGCLHMTCAKCNHGFCWRCLKSWKPNHKD [I10K] | -0.598 ± 0.16 |
| KRCPSCQAPNEKNEGCLHMTCAKCNHGFCWRCLKSWKPNHKD [I10N] | -0.534 ± 0.21 |
| KRCPSCQAPPEKNEGCLHMTCAKCNHGFCWRCLKSWKPNHKD [I10P] | -0.536 ± 0.17 |
| KRCPSCQAPWEKNEGCLHMTCAKCNHGFCWRCLKSWKPNHKD [I10W] | -0.555 ± 0.1 |
| KRCPSCQAPIEKNEGCPHMTCAKCNHGFCWRCLKSWKPNHKD [L17P] | -0.047 ± 0.12 |
| KRCPSCQAPIEKNEGCSHMTCAKCNHGFCWRCLKSWKPNHKD [L17S] | -0.186 ± 0.12 |
| KRCPSCQAPIEKNEGCKHMTCAKCNHGFCWRCLKSWKPNHKD [L17K] | -0.862 ± 0.17 |
| KRCPSCQAPIEKNEGCNHMTCAKCNHGFCWRCLKSWKPNHKD [L17N] | -0.858 ± 0.21 |
| KRCPSCQAPIEKNEGCGHMTCAKCNHGFCWRCLKSWKPNHKD [L17G] | -0.062 ± 0.075 |
| KRCPSCQAPIEKNEGCCHMTCAKCNHGFCWRCLKSWKPNHKD [L17C] | -0.209 ± 0.25 |
| KRCPSCQAPIEKNEGCAHMTCAKCNHGFCWRCLKSWKPNHKD [L17A] | -0.053 ± 0.079 |
| KRCPSCQAPIEKNEGCIHMTCAKCNHGFCWRCLKSWKPNHKD [L17I] | -0.267 ± 0.2 |
| KRCPSCQAPIEKNEGCTHMTCAKCNHGFCWRCLKSWKPNHKD [L17T] | -0.236 ± 0.12 |
| KRCPSCQAPIEKNEGCYHMTCAKCNHGFCWRCLKSWKPNHKD [L17Y] | 0.383 ± 0.29 |
| KRCPSCQAPIEKNEGCWHMTCAKCNHGFCWRCLKSWKPNHKD [L17W] | -0.169 ± 0.099 |
| KRCPSCQAPIEKNEGCRHMTCAKCNHGFCWRCLKSWKPNHKD [L17R] | -0.614 ± 0.085 |
| KRCPSCQAPIEKNEGCDHMTCAKCNHGFCWRCLKSWKPNHKD [L17D] | -0.006 ± 0.14 |
| KRCPSCQAPIEKNEGCMHMTCAKCNHGFCWRCLKSWKPNHKD [L17M] | -0.071 ± 0.13 |
